Changes are numbered by the printed parent chain. Names and notes keep the numbering of the source.
B1: p-hydroxymandelate oxidase (Hmo), 5-deaza-FMN-containing (enzyme, Amycolatopsis orientalis)
chain: MTYVSLADLERAARDVLPGEIFDFLAGGSGTEASLVANRTALERVFVIPRMLRDLTDVTTEIDIFGRRAALPMAVAPVAYQRLFHPEGELAVARAARDAGVPYTICTLSSVSLEEIAAVGGRPWFQLYWLRDEKRSLDLVRRAEDAGCEAIVFTVDVPWMGRRLRDMRNGFALPEWVTAANFDAGTAAHRRTQGVSAVADHTAREFAPATWESVEAVRAHTDLPVVLKGILAVEDARRAVDAGAGGIVVSNHGGRQLDGAVPGIEMLGEIVAAVSGGCEVLVDGGIRSGGDVLKATALGASAVLVGRPVMWALAAAGQDGVRQLLELLAEEVRDAMGLAGCESVGAARRLNTKLGVV
notes: p-hydroxymandelate oxidase (Hmo), product of the hmo gene (orf22) amplified from Amycolatopsis orientalis genomic DNA, cloned in pET-28a(+); no removal of the His6 tag is described; also called 5-deaza-Hmo; wild-type Hmo; source: E. coli BL21(DE3), purified (Ni-NTA, gel filtration); deflavinated and reconstituted with 5-deaza-FMN on an Ni-NTA column
B2: p-hydroxymandelate oxidase (Hmo) Y128F mutant, 5-deaza-FMN-containing (enzyme, Amycolatopsis orientalis)
chain: B1 chain with Y128F
notes: p-hydroxymandelate oxidase (Hmo), product of the hmo gene (orf22) of Amycolatopsis orientalis, point mutant Y128F made with QuikChange; no removal of the His6 tag is described; source: E. coli BL21(DE3), purified (same protocol as wild-type Hmo); deflavinated and reconstituted with 5-deaza-FMN on an Ni-NTA column

Target: the molecule itself
Assay: SEC; analytical gel filtration on a Superdex 200 16/20 column; 5-deaza-FMN-reconstituted protein after the refolding process; self-association (tetramer)

| Protein | stoichiometry N |
| --- | --- |
| B1 | 4 |
| B2 | 4 |

Source: article PMC6778850, “The flavin mononucleotide cofactor in α-hydroxyacid oxidases exerts its electrophilic/nucleophilic duality in control of the substrate-oxidation level” (Acta Crystallographica. Section D, Structural Biology, 2019)
